Publication PMC3315485

How the values were obtained:
Experiment in all cases: MITOMI
[1] = system: MarA RTR (Escherichia coli); settings: MITOMI at 295 K; buffer, salt and pH not given in the material; scale: ddG kJ/mol vs strongest site
[2] = system: MarA TRR (Escherichia coli); settings: MITOMI at 295 K; buffer, salt and pH not given in the material
[3] = system: MarA wild type (WQR) (Escherichia coli); settings: MITOMI at 295 K; buffer, salt and pH not given in the material
[4] = system: MarA RQR (Escherichia coli); settings: MITOMI at 295 K; buffer, salt and pH not given in the material

| Substance | binding signal [1] | other results |
| --- | --- | --- |
| mar site GAA | > 3.3 |  |
| mar site GAC | > 3.3 | binding signal (relative KA (strongest site = 1)) [2]: 1 |
| mar site GAG | > 3.3 |  |
| mar site GAT | > 3.3 |  |
| mar site GCA |  | binding signal (relative KA (strongest site = 1)) [3]: 1; binding signal (fold reduced affinity vs TCC) [4]: 1.6 |
| mar site TCC |  | binding signal (relative KA (strongest site = 1)) [4]: 1 |
